{
  "source": "paper PMC8024709",
  "about": "“DNA ligase I fidelity mediates the mutagenic ligation of pol β oxidized and mismatch nucleotide insertion products in base excision repair”",
  "binders": {"B1": {"name": "one-nucleotide-gap DNA, template T (BLI) (dsDNA)", "DNA 1": "CATGGGCGGCATGAACC", "DNA 2": "GAGGCCCATCCTCACC", "DNA 3": "GGTGAGGATGGGCCTCTGGTTCATGCCGCCCATG"}},
  "key": {"[1]": {"biological_target": "DNA ligase I (LIG1) wild-type (Homo sapiens, UniProt P18858 1-919)", "sequence (P18858 whole entry)": "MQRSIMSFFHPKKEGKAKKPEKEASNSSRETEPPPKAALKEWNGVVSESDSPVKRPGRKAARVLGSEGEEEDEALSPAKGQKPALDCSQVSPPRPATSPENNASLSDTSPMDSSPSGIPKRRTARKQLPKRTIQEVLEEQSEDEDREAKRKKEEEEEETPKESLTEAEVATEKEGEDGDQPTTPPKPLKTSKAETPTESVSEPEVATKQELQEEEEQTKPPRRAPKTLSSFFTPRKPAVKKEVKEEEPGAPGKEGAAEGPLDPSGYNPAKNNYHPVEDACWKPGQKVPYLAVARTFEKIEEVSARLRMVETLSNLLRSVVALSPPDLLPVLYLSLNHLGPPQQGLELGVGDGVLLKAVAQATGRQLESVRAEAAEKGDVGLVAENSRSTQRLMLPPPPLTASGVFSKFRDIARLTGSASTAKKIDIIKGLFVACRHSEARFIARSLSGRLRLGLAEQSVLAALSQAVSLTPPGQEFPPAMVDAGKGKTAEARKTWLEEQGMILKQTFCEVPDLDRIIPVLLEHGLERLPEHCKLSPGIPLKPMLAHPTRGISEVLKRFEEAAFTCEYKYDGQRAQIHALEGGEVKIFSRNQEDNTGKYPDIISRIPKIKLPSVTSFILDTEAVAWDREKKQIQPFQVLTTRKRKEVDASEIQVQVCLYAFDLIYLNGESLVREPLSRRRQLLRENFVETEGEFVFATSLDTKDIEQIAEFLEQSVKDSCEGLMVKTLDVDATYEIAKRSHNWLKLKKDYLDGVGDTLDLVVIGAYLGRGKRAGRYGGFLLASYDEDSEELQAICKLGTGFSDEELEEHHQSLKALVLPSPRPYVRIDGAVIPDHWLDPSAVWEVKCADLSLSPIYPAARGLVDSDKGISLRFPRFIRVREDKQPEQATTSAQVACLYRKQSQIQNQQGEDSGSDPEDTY", "experiment": "BLI; no Mg2+ or ATP listed in kinetics buffer; BLI (Octet QKe, streptavidin sensors, 40 nM DNA loaded, LIG1 10-2430 nM): Hepes pH 7.4, 200 mM NaCl, 0.5% BSA, 0.05% Tween 20, 20 °C; 1:1 binding model", "details": "protein: recombinant; tags: His-tag; label: 3'-biotin on downstream strand (S2); 1-nt gap opposite template T; 34-nt template (S7 equals S4 reversed to 5'-3') with 17-nt upstream and 16-nt downstream strands; outer ends blunt"}, "[2]": {"biological_target": "LIG1 E346A/E592A (EE/AA) low-fidelity mutant (Homo sapiens, UniProt P18858 1-919, E346A;E592A)", "sequence (P18858 whole entry E346A/E592A)": "as the sequence (P18858 whole entry) above, with E346A, E592A counted along it", "experiment": "BLI; no Mg2+ or ATP listed in kinetics buffer; BLI (Octet QKe, streptavidin sensors, 40 nM DNA loaded, LIG1 10-2430 nM): Hepes pH 7.4, 200 mM NaCl, 0.5% BSA, 0.05% Tween 20, 20 °C; 1:1 binding model", "details": "protein: recombinant; tags: His-tag; label: 3'-biotin on downstream strand (S2); 1-nt gap opposite template T; 34-nt template (S7 equals S4 reversed to 5'-3') with 17-nt upstream and 16-nt downstream strands; outer ends blunt"}},
  "data": [
    {"binder": "B1", "values": [
      {"measurement": "Kd", "setting": "[1]", "value": "~83", "unit": "nM"},
      {"measurement": "Kd", "setting": "[2]", "value": "~20", "unit": "nM"}
    ]}
  ]
}
